Values quoted from earlier work in PMC11932923.

Target: IL-36R (Homo sapiens) (UniProt Q9HB29)
Test: Biacore SPR

UniProt Q9HB29, sequence (Q9HB29 20-575): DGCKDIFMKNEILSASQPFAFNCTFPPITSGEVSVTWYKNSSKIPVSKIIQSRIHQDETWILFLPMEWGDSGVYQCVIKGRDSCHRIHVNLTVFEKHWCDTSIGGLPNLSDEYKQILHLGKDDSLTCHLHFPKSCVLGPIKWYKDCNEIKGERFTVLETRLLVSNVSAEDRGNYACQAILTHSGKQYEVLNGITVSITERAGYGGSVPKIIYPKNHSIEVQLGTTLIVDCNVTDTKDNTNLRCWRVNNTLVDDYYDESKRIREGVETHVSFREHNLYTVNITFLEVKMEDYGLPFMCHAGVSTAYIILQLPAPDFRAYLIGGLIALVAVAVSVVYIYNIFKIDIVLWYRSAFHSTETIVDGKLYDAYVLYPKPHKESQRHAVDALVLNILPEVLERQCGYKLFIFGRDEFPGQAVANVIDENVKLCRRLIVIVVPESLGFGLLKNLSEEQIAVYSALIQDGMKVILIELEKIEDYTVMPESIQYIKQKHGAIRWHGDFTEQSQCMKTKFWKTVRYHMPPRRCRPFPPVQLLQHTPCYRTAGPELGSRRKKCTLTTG

Substance: IL-36β (N-terminally truncated) (from UniProt Q9NZH7)
- Kd: 7 pM
